PMC10849882 (The Journal of Cell Biology, 2024)

Target: the molecule itself
Test: negative stain EM

B1: IMPDH1(514)-S477D (enzyme)
chain: not shown
- binding result: binds

B2: IMPDH1(514)-WT (enzyme)
chain: not shown
- binding result: binds
